Data reported in patent publication US20240376199A1 (University of Texas, published 2024).
Numbering of substitutions follows the chain as printed.

B1: Ab18 IgG (antibody, V domains shown)
VH: QVQLQESGPGLVKPSETLSLTCTVSGGSISSYYWSWIRQPPGKGLEWIGSIYYSGSTNYNPSLKSRVTISVDTSKNQFSLKLSSVTAADTAVYYCARDGGGEYPSGTPFDIWGQGTMVTVSS
VL: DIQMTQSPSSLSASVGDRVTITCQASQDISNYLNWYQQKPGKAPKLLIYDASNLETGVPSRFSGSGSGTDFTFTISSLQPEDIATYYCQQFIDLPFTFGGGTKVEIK
B2: TREM2-Ab2Hu (antibody, V domains shown)
VH: QVQLVQSGAEVKKPGASVKVSCKASGYTFTSYYMHWVRQAPGQGLEWMGIINPSGGSTSYAQKFQGRVTMTRDTSTSTVYMELSSLRSEDTAVYYCARDRPGRSSIAAAGPKRGHYGMDVWGQGTTVSVSS
VL: QSALNQPASVSGSPGQSITISCTGTSSDVGGYNYVSWYQQHPGKAPKLMIYEVSNRPSGVSNRFSGSKSGNTASLTISGLQAEDEADYYCSSYTSSRTLVFGTGTKVTVL
notes: also called H2-Hu / 2L-Hu
B3: TREM2-Ab1Rb (antibody, V domains shown)
VH: QEQLVESGGGLVTPGGTLTLTCTASGIDFSNYGISWVRQAPGKGLEWIGYIYPDYGATAYANWVNGRFTVSLDNAQNTVTLNMTSLTAADTATYFCARSTGWGDFNLWGPGTLVTVSS
VL: DVVMTQTPASVSEPVGGTVTIKCQASQNIGSNLAWYQQKPGQPPNLLIYGASNLASGVSSRFKGSSSGTEYTLTISDLECADAATYYCQCTYYGSSYVAFGGGTEVVVK
notes: Rabbit-derived mAb; also called 1 H / 1 k
B4: TREM2-Ab2Rb (antibody, V domains shown)
VH: QKQLVESGGGLVKPEGSLTLTCKVSGIDFSSAGISWVRQAPGKGLEWIAYIYPDYGVTDYANWVNGRFTISLDNAQNTVFLQMTSLTAADTATYFCARMDAADAGYGYDLWGPGTLVTVSS
VL: AAVLTQTTSPVSGAVGGTVTIKCQASQSVGSNLAWYQQKPGQPPKILIGGASKLASGVPSRFSGSGSGTEFTLTISDLECADAGTYYCHSYYYSSTSADAFGGGTKVVVE
notes: Rabbit-derived mAb; also called 2 H / 2 k
B5: TREM2-Ab6Rb (antibody, V domains shown)
VH: B4 VH
VL: B4 VL with A1D, A2V, L4M, S31T, L73F, K106E, E110K
notes: also called 2 H / 6 k
B6: TREM2-Ab12Rb (antibody, V domains shown)
VH: QSVEESGGDLVKSGASLTLTCTASGFSFSSYYFMCWVRQAPGRGLEWIACIYAGTSANTYYASWAKGRFTISKTSSTTVTLQMTSLTAADTATYFCARDRGYYTYADAGYAYATDGFDLWGPGTLVTVSS
VL: ALVMTQTPASVEAAVGGTVTIKCQASQNIYSNLAWYQQKPGQPPKRLIYKASTLPSGVPSRFKGSGSGTQFTLTISDLECADAATYYCQSNYYSSSSNYGPNAFGGGTEVVVK
notes: Rabbit-derived mAb; also called 12 H / 12 k
B7: TREM2-Ab16Rb (antibody, V domains shown)
VH: QEQLVESGGGLVKPGASLTLTCTASGFSFSDTAYICWVRQAPGKGLEWVACIAFGDGRTYLASWAKGRFTISKTSSTTVTLQMTSLPAADTATYFCASNFTLWGPGTLVTVSS
VL: DVVMTQTPASVSEPVGGTVTINCQAIQSIGNNFVWYQQKPGQPPKLLIYKASIRASGVSSRFRGSGSGTDFTLTISDLECDDTGTYYCQCTYASSATFGGGTEVVVK
notes: Rabbit-derived mAb; also called 16 H / 16 k
B8: TREM2-Ab22Rb (antibody, V domains shown)
VH: QSVEESGGDLVKPGASLTLTCTASGFSFSSTAMCWVRQAPGKGLEWIACIGFSSGIINYANSVKGRFTISKTSSTTVSLQMNSLTAADTATYFCARFFNLWGPGTLVTVSS
VL: DPVLTQTPSSVSAAVGGTVTISCQATETVYSNDRLAWYQQKPGQPPKLLIYRISTLESGVPSRFKGSGSGTQFTLTISGVQCDDAATYYCAGGYNGNIWAFGGGTEVVVK
notes: Rabbit-derived mAb; also called 22 H / 22 k
B9: TREM2-Ab26Rb (antibody, V domains shown)
VH: QKQLVESGGDLVKPEGSLTLTCTASGFSFSYSYYMCWVRQAPGKGLEWIGCIYGGGSGSSYYASWAKGRFTISKTSSTTVTLQVTSLTAADTATYFCARIDDAYATVMWGPGTLVTVSS
VL: DVVMTQTASPVSGAVGGTVTIKCQASEDIYSSLAWYQQKPGQPPKLLIYQASKLASGVPPRFSGSGSGTEYTLTISDLECADAATYYCQNYYYVRGADYWAFGGGTEVVVE
notes: Rabbit-derived mAb; also called 26 H / 26 k
B10: TREM2-Ab8Hu (antibody, V domains shown)
VH: QVQLVESGGGLIQPGGSLRLSCAVSGVSVSNNYMNWVRQAPGKGLEWVSSMYSDATTHYADSVKGRFTISRDNSKNNMYLQMDSLRAEDTAVYYCARESVAGTLDFWGQGTTVSVSS
VL: SYELTQPPSASGTPGQRVTISCSGSSSNIGTYPVNWYQKLPGTAPKLLIYTNNQRPSGVPDRFSGSKSGTSASLTISGLQSEDEADYYCATWGDSLNAVVFGGGTKVTVL
notes: also called H8-Hu / 8L-Hu
B11: TREM2-Ab19Hu (antibody, V domains shown)
VH: EVQLVQSGAEVKKPGASVKVSCKASGYTFTSYYMHWVRQAPGQGLEWMGIINPSGGSTSYAQKFQGRVTMTRDTSTSTVYMELSSLRSEDTAVYYCARSLSSGSYYDYWGQGTLVSVSS
VL: B2 VL with N5T, E52D, S54T, N55K, I77V, T103G
notes: also called H19-Hu / 19L-Hu
B12: biotinylated TREM2 protein (Sino Biological) (receptor)
chain: LNTTVLQGMAGQSLRVSCTYDALKHWGRRKAWCRQLGEEGPCQRVVSTHGVWLLAFLKKRNGSTVIADDTLAGTVTITLKNLQAGDAGLYQCQSLRGREAEVLQKVLVEVLEDPLDDQDAGDLWVPEESSSFEGAQVEHSTSRNQETSFPPTS
modifications: Biotinylated; sites not stated.
notes: not shown: biotin label

Legend:
[1] = biological target: TREM2-DAP12 reporter construct on 2B4 NFAT-EGFP reporter cells (mouse; human, UniProt Q99NH8 19-171; O43914 28-113); assay: cell-based or functional assay
[2] = biological target: TREM2 (antigen of the BLI kinetics and binning of Tables 2 and 3); assay: BLI, Octet Red96
[3] = biological target: T1, muTfR-His (Sino Biological) (mouse, UniProt Q62351 89-763); assay: sandwich BLI, biotinylated TREM2 on streptavidin sensor, antibody step omitted
T1 construct: extracellular domain; Bought protein; also called TfR ECD; mouse transferrin receptor; not shown: His tag
Description: Streptavidin sensors (Fortebio) were used to capture biotinylated TREM2 proteins (Sino Biological). During all incubation steps, samples were kept at room temperature with 1000 rpm shaking. In the TREM2 loading step, 100 nM biotinylated TREM2 proteins were incubated with the sensors for the designated time. In the bispecific antibody interaction steps, 200 nM antibodies were used. In the muTfR incubation step, 100 nM muTfR-His (Sino Biological) were used. Between incubations, the sensors were dipped into blank kinetic buffers to allow the free dissociation of proteins.

T1 sequence (Q62351 89-763): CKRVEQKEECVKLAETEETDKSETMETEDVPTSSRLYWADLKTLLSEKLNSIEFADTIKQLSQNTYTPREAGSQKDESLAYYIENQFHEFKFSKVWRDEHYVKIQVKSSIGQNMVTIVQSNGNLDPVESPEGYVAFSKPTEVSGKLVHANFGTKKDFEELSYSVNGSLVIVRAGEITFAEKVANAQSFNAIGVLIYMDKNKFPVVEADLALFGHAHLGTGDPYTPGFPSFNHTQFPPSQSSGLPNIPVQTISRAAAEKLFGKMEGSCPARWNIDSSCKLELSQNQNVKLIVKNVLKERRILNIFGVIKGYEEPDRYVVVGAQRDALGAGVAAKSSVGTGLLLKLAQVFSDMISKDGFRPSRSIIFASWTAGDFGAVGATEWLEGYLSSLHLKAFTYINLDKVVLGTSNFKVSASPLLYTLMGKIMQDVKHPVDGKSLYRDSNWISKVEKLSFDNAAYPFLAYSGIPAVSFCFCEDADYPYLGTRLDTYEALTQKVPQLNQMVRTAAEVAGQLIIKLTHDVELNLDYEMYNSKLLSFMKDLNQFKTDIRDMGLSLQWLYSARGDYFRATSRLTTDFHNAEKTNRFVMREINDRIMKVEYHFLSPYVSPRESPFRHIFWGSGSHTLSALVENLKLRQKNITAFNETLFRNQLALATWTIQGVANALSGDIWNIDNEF

| Binder | EC50 of activation of TREM2-DAP12 NFAT-EGFP reporter cells [1] [nM] | Kd [2] [nM] | koff [2] [s⁻¹] | kon [2] [M⁻¹ s⁻¹] | binding result [3] |
| --- | --- | --- | --- | --- | --- |
| B1 | 79.4 |  |  |  |  |
| B2 |  | 18.1 | 0.00647 | 359000 |  |
| B3 |  | 1.42 | 0.000727 | 513000 |  |
| B4 |  | 1.2 | 0.000451 | 376000 |  |
| B5 |  | 1.97 | 0.000909 | 461000 |  |
| B6 |  | 71.8 | 0.00685 | 95500 |  |
| B7 |  | 0.32 | 7.84e-05 | 245000 |  |
| B8 |  | 3.1 | 0.00107 | 346000 |  |
| B9 |  | 27.5 | 0.00487 | 177000 |  |
| B10 |  | 8.18 | 0.00499 | 609000 |  |
| B11 |  | 18.9 | 0.00986 | 522000 |  |
| B12 |  |  |  |  | no binding (tested: 100 nM) |
